The target of the test is T1, ヒト心筋由来トロポニンI (human, UniProt P19429 2-210).
T1 construct: It is not the protein on the chip; also called human cardiac troponin I; cTnI
Nature of the test: SPR (Biacore T100), troponin I on a CM5 chip, scFv as analyte. In general terms: Surface plasmon resonance follows binding to a sensor surface in real time, without labels.

T1 sequence (P19429 2-210 limits assumed): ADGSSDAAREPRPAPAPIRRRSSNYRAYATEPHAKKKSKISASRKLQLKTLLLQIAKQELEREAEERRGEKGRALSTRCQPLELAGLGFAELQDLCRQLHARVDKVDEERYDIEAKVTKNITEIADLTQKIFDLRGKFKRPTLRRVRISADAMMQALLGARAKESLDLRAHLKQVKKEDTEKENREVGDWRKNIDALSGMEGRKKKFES

B1: 野生型scFv抗体フラグメント(配列番号:62) (scFv)
scFv: DVVLTQSPLTLSVTIGQPASISCKSSQSLLDSDGKTYLNWLLQRPGQSPKRLIYLVSKLDSGVPDRFTGSGSGTDFTLKISRVEAEDLGVYYCWQGTHFPLTFGAGTKLEIKRGGGGSGGGGSGGGGSQLQLQQSGAELVRSGASVKLSCTASGFNIKDYYMNWVKQRPEQGLEWIGWIDPANGDTAYAPRFQVKATMTADKSSNTAYLQLSSLTSEDTAVYYCNADLPMDQWGQGTSVTVSSAAALEHHHHHH
notes: also called 野生scFv抗体フラグメント; 野生型scFv抗体フラグメント
For B1, the binding result is given as “binds”.

(Values after patent publication JP2013172663A (dated 2013).)
